This note sets out measurements from patent US7981997B2, “Growth factor which acts through ErbB-4 RTK” (Yeda Research And Development Co., priority 2000, dated 2011).

In one test the target is T1, IgB-1 (soluble ErbB-1) (Homo sapiens, UniProt P00533).
T1 construct: Recombinant soluble extracellular domains of the four ErbB proteins (denoted IgB-1 through 4); made in house; host or cells: HEK-293 human embryonic kidney cells (conditioned medium)
Briefly: Covalent crosslinking of radiolabeled ligands to soluble ErbB-IgG fusion, cell-free. It is filed as binding. Particulars: 125I-labeled ligand, BS3 crosslinking.

A further test concerns the target T2, ErbB-4 (Homo sapiens, UniProt Q15303).
T2 construct: expressed in transfected cells; host or cells: CHO (Chinese Hamster Ovary) cells
Briefly: Ligand displacement analysis of radiolabeled NRG-1β on ErbB-4-expressing CHO cells. In kind it is binding. The settings on record: displacement of surface-bound radiolabeled NRG-1β. As to the method:
Displacement analyses of radiolabeled NRG-1β were performed with CHO cells expressing ErbB-4. Cell monolayers (2×10^5 cells) were incubated for 2 hours at 4° C. with a radiolabeled NRG-1 (5 ng/ml) in the presence of increasing concentrations of an unlabeled NRG-4 (closed triangles), or NRG-1β (closed squares). Each data point represents the mean and range (bars) of two determinations.
Growth factors were labeled with Iodogen (Pierce) as described (Karunagaran et al., 1995). Chemical crosslinking to Chinese Hamster Ovary (CHO) cells engineered to express different ErbB combinations have been performed essentially as described (Tzahar et al., 1996). Briefly, radiolabeled ligands (at 100 ng/ml) were incubated for 2 hours with cell monolayers at 4 C. The chemical crosslinking agent BS^3 (1 mM) was then added and the cells were further incubated for 45 minutes at 22 C. […] Non-specific binding was determined in the presence of a 100-fold molar excess of the unlabeled ligani. Cells were then washed, lysed in a solution containing 0.1 M NaOH and 0.1% SDS, and radioactivity determined by use of a gamma counter.
Taken together, the biological effects of NRG-4 and its complex formation with ErbB-4 implied not only specificity of recognition, but also weaker interaction relative to NRG-1. To quantify the interaction, a ligand displacement analysis on ErbB-4-expressing CHO cells was undertaken. […]

The subject of test [1] is D24 cells (32D co-expressing ErbB-4 and ErbB-2). In words: Long-term cell survival assay in the absence of IL-3 (MTT). The settings on record: ligand 100 ng/ml, MTT daily. It is filed as cell-based. On the procedure: (§1) FIG. 3b show survival effect of NRG-4 on ErbB-expressing derivatives of 32D cells. The indicated derivatives of 32D cells were incubated for various time intervals in the absence of IL-3. […] For control, cells were incubated with medium conditioned by IL-3-producing cells (open triangles), or with no factor (open circles). The extent of cell proliferation was determined daily by using the calorimetric MTT assay. The data presented are the mean±S.D. of 4 determinations. Note that co-expression of ErbB-1 and ErbB-2 (D12 cells) enabled cell survival in the absence of IL-3. The experiment was repeated twice with similar results.
(§2) The establishment of a series of interleukin 3 (IL-3)-dependent 32D myeloid cells expressing all combinations of ErbB proteins has been described (Alimandi et al., 1997; Pinkas-Kramarski et al., 1996; Shelly et al., 1998). Cells were maintained in RPMI medium with 10% fetal bovine serum (FBS) and dilute IL3-containing conditioned medium. […] Cell survival was determined 24 hours later, or after the indicated time intervals, by MTT assay, as previously described (Mosman, 1983). MTT (0.05 mg/ml) was incubated with the analyzed cells for 2 hours at 37 C. Living cells can transform the tetrazolium ring into dark blue formazan crystals, that can be quantified by reading the optical density at 540-630 nm after lysis of the cells with acidic isopropanol. […]

In test [2] the test system is D4 cells (32D expressing ErbB-4). The test is described as above. It is filed as cell-based. The settings on record: ligand 100 ng/ml, MTT daily. On the procedure: as §1, §2
A further test has as its target T3, IgB-2 (soluble ErbB-2) (Homo sapiens, UniProt P04626).
T3 construct: Recombinant soluble extracellular domains of the four ErbB proteins (denoted IgB-1 through 4); made in house; host or cells: HEK-293 human embryonic kidney cells (conditioned medium)
In words: Covalent crosslinking of radiolabeled ligands to soluble ErbB-IgG fusion, cell-free. In kind it is binding. The settings on record: 125I-labeled ligand, BS3 crosslinking. On the procedure: (§3) The four soluble forms of ErbB proteins, in the form of IgG fusions (denoted IgB-1 through 4), were separately incubated with the indicated radiolabeled growth factors. Where indicated (lower panel), an excess (100-fold) of unlabeled NRG-4 was co-incubated with the labeled ligand. Following 2 hours at 22° C., the covalent crosslinking reagent bis(sulfosuccinimdyl)-suberate (BS^3) was added (1 mM) and 45 minutes later the ligand-receptor complexes were immunoprecipitated with agarose-immobilized protein-A beads. Arrows mark the locations of monomeric (M) and dimeric (D) receptor complexes.
(§4) Growth factors were labeled with Iodogen (Pierce) as described (Karunagaran et al., 1995). Chemical crosslinking to Chinese Hamster Ovary (CHO) cells engineered to express different ErbB combinations have been performed essentially as described (Tzahar et al., 1996). Briefly, radiolabeled ligands (at 100 ng/ml) were incubated for 2 hours with cell monolayers at 4 C. The chemical crosslinking agent BS^3 (1 mM) was then added and the cells were further incubated for 45 minutes at 22 C. Mouse antibodies were first coupled to rabbit anti-mouse IgG and to protein A-Sepharose beads, and then they were incubated with cell extracts for 2 hours at 4 C. Immunoprecipitated complexes were then washed three times with ice-cold SBN buffer (1% NP-40; 150 mM NaCl; 10% Glycerol; 1 mM EGTA, in 50 mM Tris-HCl, pH 7.4; 1 ml per wash) prior to heating (5 minutes at 95 C) in gel sample buffer, resolution by gel electrophoresis, transfer to nitrocellulose and autoradiography. For crosslinking with IgBs, after co-incubation of IgB-containing conditioned media with radiolabeled ligands, complexes were immunoprecipitated directly with Sepharose-protein A beads. For ligand displacement analyses, cell monolayers were washed once with binding buffer, and then incubated for 2 hours at 4 C with radiolabeled […] (5 ng/ml) and various concentrations of unlabeled ligands, as indicated. Non-specific binding was determined in the presence of a 100-fold molar excess of the unlabeled ligani. Cells were then washed, lysed in a solution containing 0.1 M NaOH and 0.1% SDS, and radioactivity determined by use of a gamma counter.
(§5) In the first assay, binding studies in a cell-free system were performed with recombinant soluble forms of all four ErbB proteins. The soluble proteins, denoted IgB-1 through 4, consist of a dimeric fusion between the extracellular domain of the corresponding ErbB and the Fc portion of a human immunoglobulin G (Chen et al., 1996).

The next test concerns the target T4, IgB-3 (soluble ErbB-3) (Homo sapiens, UniProt P21860).
T4 construct: Recombinant soluble extracellular domains of the four ErbB proteins (denoted IgB-1 through 4); made in house; host or cells: HEK-293 human embryonic kidney cells (conditioned medium)
Described as above. It is filed as binding. The settings on record: 125I-labeled ligand, BS3 crosslinking. On the procedure:
as §3, §4, §5

T2 sequence (Q15303 26-1308, species assumed): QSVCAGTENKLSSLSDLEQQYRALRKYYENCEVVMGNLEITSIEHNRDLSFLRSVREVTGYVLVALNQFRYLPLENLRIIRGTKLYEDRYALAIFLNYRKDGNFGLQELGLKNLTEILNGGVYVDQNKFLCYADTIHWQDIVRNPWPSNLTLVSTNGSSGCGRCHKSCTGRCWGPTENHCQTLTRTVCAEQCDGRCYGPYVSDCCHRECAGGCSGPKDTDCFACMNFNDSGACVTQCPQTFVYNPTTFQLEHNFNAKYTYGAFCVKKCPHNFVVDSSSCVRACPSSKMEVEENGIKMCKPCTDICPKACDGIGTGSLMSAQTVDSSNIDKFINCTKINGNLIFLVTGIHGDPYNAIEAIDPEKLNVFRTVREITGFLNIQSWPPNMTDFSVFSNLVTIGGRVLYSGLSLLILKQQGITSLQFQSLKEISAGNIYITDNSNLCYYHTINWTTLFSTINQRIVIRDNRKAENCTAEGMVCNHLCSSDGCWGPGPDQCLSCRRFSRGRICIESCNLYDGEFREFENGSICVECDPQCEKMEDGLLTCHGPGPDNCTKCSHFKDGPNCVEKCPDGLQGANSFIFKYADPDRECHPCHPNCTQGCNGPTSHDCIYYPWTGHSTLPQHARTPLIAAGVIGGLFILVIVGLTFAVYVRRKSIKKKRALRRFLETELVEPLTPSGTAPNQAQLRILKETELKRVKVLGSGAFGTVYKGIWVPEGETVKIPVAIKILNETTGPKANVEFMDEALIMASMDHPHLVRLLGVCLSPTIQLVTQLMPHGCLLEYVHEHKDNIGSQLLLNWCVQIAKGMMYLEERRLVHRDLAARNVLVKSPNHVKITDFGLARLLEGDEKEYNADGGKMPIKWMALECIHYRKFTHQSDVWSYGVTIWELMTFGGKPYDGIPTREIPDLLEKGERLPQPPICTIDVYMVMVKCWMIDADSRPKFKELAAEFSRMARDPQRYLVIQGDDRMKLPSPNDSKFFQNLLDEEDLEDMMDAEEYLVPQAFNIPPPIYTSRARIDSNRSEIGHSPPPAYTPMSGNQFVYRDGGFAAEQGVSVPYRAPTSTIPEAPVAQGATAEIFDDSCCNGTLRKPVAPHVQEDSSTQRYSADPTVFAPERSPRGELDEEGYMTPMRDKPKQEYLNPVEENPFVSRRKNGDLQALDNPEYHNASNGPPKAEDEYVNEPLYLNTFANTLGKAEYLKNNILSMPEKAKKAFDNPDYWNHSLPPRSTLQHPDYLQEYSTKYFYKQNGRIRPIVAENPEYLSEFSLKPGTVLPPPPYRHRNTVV
T4 sequence (P21860 20-643 limits assumed): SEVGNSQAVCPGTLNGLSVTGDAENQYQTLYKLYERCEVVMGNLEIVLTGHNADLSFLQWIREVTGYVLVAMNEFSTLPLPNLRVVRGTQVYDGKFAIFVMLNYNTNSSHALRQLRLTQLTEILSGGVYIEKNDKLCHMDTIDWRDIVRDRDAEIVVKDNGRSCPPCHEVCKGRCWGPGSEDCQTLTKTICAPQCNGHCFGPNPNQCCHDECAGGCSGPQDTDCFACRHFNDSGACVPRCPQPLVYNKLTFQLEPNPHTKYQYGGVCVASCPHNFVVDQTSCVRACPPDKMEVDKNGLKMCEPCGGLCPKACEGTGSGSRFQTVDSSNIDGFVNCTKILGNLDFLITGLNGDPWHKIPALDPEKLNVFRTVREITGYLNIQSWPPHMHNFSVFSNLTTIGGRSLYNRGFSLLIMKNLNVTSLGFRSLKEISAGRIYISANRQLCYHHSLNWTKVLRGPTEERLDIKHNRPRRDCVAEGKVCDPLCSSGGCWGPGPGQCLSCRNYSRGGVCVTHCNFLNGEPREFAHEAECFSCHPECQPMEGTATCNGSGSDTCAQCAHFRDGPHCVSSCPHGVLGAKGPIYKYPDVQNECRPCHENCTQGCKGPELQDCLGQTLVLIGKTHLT

B1: NRG-4: synthetic refolded mouse EGF-like domain of NRG-4 (residues 4 to 50, SEQ ID NO:2) (peptide, listed as Mus musculus)
chain: MPTDHEQPCGPRHRSFCLNGGICYVIPTIPSPFCRCIENYTGARCEEVFLPSSSIPSESNLSAAFVVLAVLLTLTIAALCFLCRKGHLQRASSVQCEISLVETNNTRTRHSHREH
B1: in the test with IgB-1 (soluble ErbB-1), the “binding to IgB-1 (covalent crosslinking signal)” value is given as “low or no binding”. In addition, the “lower binding affinity to ErbB-4 compared with unlabeled NRG-1” value with ErbB-4 is recorded as “approximately 8 fold”. For the same molecule, the “survival of D24 cells in the absence of IL-3” value in test [1] is “more robust, and akin to the NRG-1-treated controls”. For the same molecule, in test [2], the “survival of D4 cells in the absence of IL-3” value is on record as “stimulated the survival”. Besides, the “binding to IgB-2 (covalent crosslinking signal)” value in the test with IgB-2 (soluble ErbB-2) is given as “low or no binding”. Besides, the “binding to IgB-3 (covalent crosslinking signal)” value in the test with IgB-3 (soluble ErbB-3) is reported as “low or no binding”.
